Test results from US20250326835A1, “USE OF ANTI-CLAUDIN-1 ANTIBODIES TO TREAT CHOLANGIOCARCINOMA” (Alentis Therapeutics AG, priority 2022, published 2025).

Molecular target: T1, human Claudin-1 (CLDN1) on EGI-1 cholangiocarcinoma cells (human, UniProt O95832 1-211)
T1 construct: whole, on cells; Endogenously expressed on human CCA cell lines; also called non-junctional CLDN1
T1 sequence (looked up): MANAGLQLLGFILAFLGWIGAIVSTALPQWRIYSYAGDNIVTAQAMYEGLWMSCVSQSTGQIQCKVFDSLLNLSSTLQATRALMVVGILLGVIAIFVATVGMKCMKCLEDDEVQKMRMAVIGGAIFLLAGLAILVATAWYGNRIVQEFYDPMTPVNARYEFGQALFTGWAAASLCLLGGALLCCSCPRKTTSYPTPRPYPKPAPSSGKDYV
Experiment: flow cytometry on EGI-1 cells, 10 µg/ml antibody, Alexa647 secondary, delta-MFI against isotype control
Method: A first-line chemotherapy treatment for advanced CCA is cisplatin plus gemcitabine (Borbath et al., 48(7) Eur J Cancer 990-996 (May 2012)). To investigate the expression of CLDN1 upon treatment with cisplatin and gemcitabine, 1.5×10⁵ CCA EGI-1 cells were treated with cisplatin (100 nM) and gemcitabine (10 nM) for 24 hours. Cells were then collected, and CLDN1 expression was assessed by flow cytometry and Western Blot using CLDN1 specific Abs.
For flow cytometry, cells were incubated with the anti-CLDN1 mAb H3L3 or the isotype control mAb at a concentration of 10 μg/ml in triplicates per condition. Following incubation with the primary antibody for 1 hour, cells were washed and incubated with human Alexa647-conjugated secondary antibody at 4° C. for 45 minutes. Cells were subsequently washed and fixed with 2% paraformaldehyde (PFA). Data were acquired using Cytoflex B2R2V0 (Beckman Coulter) and analyzed using CytExpert 2.1 and FlowJo v10 (Beckman Coulter). CLDN1 expression was calculated as the difference of the mean fluorescence intensities of cells stained with anti-CLDN1 mAb H3L3 and isotype control mAb. The experiment was independently repeated three times.

B1: anti-CLDN1 mAb H3L3 (antibody, human IgG1, kappa, V domains shown)
VH: QVQLVESGGGVVQPGRSLRLSCLGSGFSFSSYGMNWVRQAPGKGLEWVASISPSGSYFYYADSVKGRFTISRDNSKNTLYLQMTSLRAEDTAIYYCARLPGFNPPFDHWGQGTLVTVSS
VL: DIQMTQSPSSLSASVGDRVTITCKASQNVGGNVDWYQWKPGKAPKLLIYGASNRYTGVPDRFRGSGSGTDFTLTISSLQPEDVATYYCLQYKNNPWTFGGGTKVEIKR
notes: also called CLDN1-specific mAb H3L3; anti-CLDN1 H3L3 antibody
B1: binds.
